Source: patent US11441131B2, “Heparosan synthases and use thereof for saccharide synthesis” (The Regents of the University of California, priority 2019, dated 2022)

How the values were obtained:
[1] = Relative activity comparison with acceptor GlcAβProNHFmoc (O1) and UDP-GlcNAc; type: biochemical; settings: for GlcNAcα1-4GlcAβProNHFmoc (%): percentage conversion, 30 min, HPLC
Description: (§1) Reactions were stopped by heating reaction mixtures at 70° C. for 10 min, followed by incubation on ice for 30 min and centrifugation at 11,337 g for 15 min.

[2] = Relative activity comparison with acceptor GlcNAcαProNHFmoc and UDP-GlcA; type: biochemical; settings: enzyme 1.5 mg/mL; percentage conversion, 30 min, HPLC
Description: as §1

Thermostability assay = type: physicochemical; settings: 30 min incubation at 25-50 °C
Description: Thermostability assays. […] UHPLC detection was carried out similarly as described above for kinetics studies.

[3] = Survival of lyophilization assay; type: physicochemical; settings: dialysis, rehydration, compared with freshly prepared enzyme
Description: Survival of lyophilization assays. […] The resulting powders were stored at −80° C. for 3 days. For activity assays, the dried powder was dissolved in water. […] Chromatographic separation and detection were achieved similarly as described above for the kinetics studies except that an isocratic flow (0.3 mL/min) of a mixed solvent (32% acetonitrile/68% water with 0.1% TFA) was used for elution.

[4] = Effect of UDP concentration on reverse glycosylation activity; type: biochemical; settings: O6 1 mM, enzyme 15 μM
Description: Reactions were stopped by heating reaction mixtures at 70° C. for 10 min followed by incubation on ice for 30 min, and centrifugation at 11,337 g for 15 min. Supernatants were analyzed using an Infinity 1290 II HPLC equipped with 1260 Infinity II Diode Array Detector WR (monitored at 254 nm, Agilent Technologies, CA). An AdvanceBio Glycan Mapping column (1.8 μm particle, 2.1×150 mm, Agilent Technologies, CA) was used with a gradient (13 min) of 0.5 mL/min for 90% to 70% acetonitrile and a solution of water with 0.1% TFA for analysis.

[5] = Coupled-enzyme reverse glycosylation assay with NmLgtA and LacβMU; type: biochemical; settings: His6-Δ80PmHS2 +, UDP-GlcNAc −
Description: Coupled-enzyme reverse glycosylation assay. […] Reactions were stopped by heating reaction mixtures at 70° C. for 10 min followed by incubation on ice for 30 min and centrifuged at 11,337 g for 15 min.

[6] = Protein expression and purification; parameters: species or system E. coli BL21 (DE3); settings: per L culture
Description: Protein expression and purification. The plasmid-bearing E. coli BL21(DE3) cells were cultured in 1 L of LB-rich media (10 g/L tryptone, 5 g/L yeast extract and 10 g/L NaCl) supplemented with ampicillin (100 μg/mL). Expression of the target protein was achieved by inducing the E. coli culture with 0.1 mM of isopropyl-1-thio-β-D-galactopyranoside (IPTG) when OD600 nm reached 0.8-1.0, followed by incubating at 20° C. for 20 h with shaking at 250 rpm in a C25KC incubator shaker (New Brunswick Scientific, Edison, N.J.). Histidine-tagged target proteins were purified from cell lysate. To obtain the cell lysate, cell pellet harvested by centrifugation at 2,795 g for 50 min was resuspended (25 mL/L cell culture) in lysis buffer (Tris-HCl, 100 mM, pH 8.0 with 0.1% Triton X-100). Sonication protocol was 2 s (sonication)/3 s (rest) for a total of 6 min on ice. Lysed cells were centrifuged at 5,000 g for 50 min and the supernatant (lysate) was collected. Purification of histidine-tagged proteins from the lysate was achieved using a Ni′-resin column. The column was pre-equilibrated with 10 column volumes of binding buffer (5 mM imidazole, 0.5 M NaCl, 50 mM Tris-HCl, pH 7.5). The lysate was then loaded, and the column was washed with 10 column volumes of binding buffer and 10 column volumes of washing buffer (16 mM imidazole, 0.5 M NaCl, 50 mM Tris-HCl, pH 7.5). The target protein was eluted with Tris-HCl buffer (50 mM, pH 7.5) containing imidazole (200 mM) and NaCl (0.5 M). The fractions containing the purified enzymes were collected, and stored at 4° C.

[7] = Behaviour during dialysis; type: physicochemical
Isoelectric point (pI) = type: physicochemical

B1: His6-Δ80PmHS2: N-terminal His6-tagged and N-terminal 80 amino acid-truncated PmHS2 (SEQ ID NO:3) (protein)
chain: MGSSHHHHHHSFEKIYTYNQALEAKLEKDKQTTSITDLYNEVAKSDLGLVKETNSANPLVSIIMTSHNTAQFIEASINSLLLQTYKNIEIIIVDDDSSDNTFEIASRIANTTSKVRVFRLNSNLGTYFAKNTGILKSKGDIIFFQDSDDVCHHERIERCVNILLANKETIAVRCAYSRLAPETQHIIKVNNMDYRLGFITLGMHRKVFQEIGFFNCTTKGSDDEFFHRIAKYYGKEKIKNLLLPLYYNTMRENSLFTDMVEWIDNHNIIQKMSDTRQHYATLFQAMHNETASHDFKNLFQFPRIYDALPVPQEMSKLSNPKIPVYINICSIPSRIAQLQRIIGILKNQCDHFHIYLDGYVEIPDFIKNLGNKATVVHCKDKDNSIRDNGKFILLEELIEKNQDGYYITCDDDIIYPSDYINTMIKKLNEYDDKAVIGLHGILFPSRMTKYFSADRLVYSFYKPLEKDKAVNVLGTGTVSFRVSLFNQFSLSDFTHSGMADIYFSLLCKKNNILQICISRPANWLTEDNRDSETLYHQYRDNDEQQTQLIMENGPWGYSSIYPLVKNHPKFTDLIPCLPFYFL
modifications: N-terminal His6 tag
efficiency of GlcAβProNHFmoc (O1) over GlcNAcαProNHFmoc as substrate in disaccharide production [1]: 130 fold | GlcNAcα1-4GlcAβProNHFmoc (%) ([1]; enzyme 0.06 mg/mL): 50.8 ± 6.0% | GlcNAcα1-4GlcAβProNHFmoc (%) ([1]; enzyme 1.5 mg/mL): 100% | GlcAβ1-4GlcNAcαProNHFmoc (%) [2]: 9.8 ± 0.4% | increase of Tso (temperature at which the enzyme retains 50% of maximum activity) compared to WT (Thermostability assay): approximately 7 °C | activity after lyophilization [3]: without loss of activity | O6 (%) ([4]; UDP 0 (nM)): 100% | O4 (%) ([4]; UDP 1 (nM)): 6.7% | O5 (%) ([4]; UDP 1 (nM)): 2.6% | O6 (%) ([4]; UDP 1 (nM)): 81.6% | O8 (%) ([4]; UDP 1 (nM)): 7.9% | O10 (%) ([4]; UDP 1 (nM)): 0.8% | O1 (%) ([4]; UDP 5 (nM)): 3.4% | O2 (%) ([4]; UDP 5 (nM)): 1.5% | O3 (%) ([4]; UDP 5 (nM)): 0.6% | O4 (%) ([4]; UDP 5 (nM)): 16.9% | O5 (%) ([4]; UDP 5 (nM)): 4.2% | O6 (%) ([4]; UDP 5 (nM)): 58.0% | O7 (%) ([4]; UDP 5 (nM)): 0.4% | O8 (%) ([4]; UDP 5 (nM)): 12.8% | O10 (%) ([4]; UDP 5 (nM)): 1.9% | O12 (%) ([4]; UDP 5 (nM)): 0.2% | O1 (%) ([4]; UDP 10 (nM)): 3.4% | O2 (%) ([4]; UDP 10 (nM)): 7.8% | O3 (%) ([4]; UDP 10 (nM)): 1.5% | O4 (%) ([4]; UDP 10 (nM)): 18.9% | O5 (%) ([4]; UDP 10 (nM)): 3.8% | O6 (%) ([4]; UDP 10 (nM)): 38.0% | O7 (%) ([4]; UDP 10 (nM)): 1.8% | O8 (%) ([4]; UDP 10 (nM)): 18.6% | O9 (%) ([4]; UDP 10 (nM)): 0.7% | O10 (%) ([4]; UDP 10 (nM)): 4.2% | O12 (%) ([4]; UDP 10 (nM)): 1.1% | GlcNAcβ1-3LacβMU (%) ([5]; Reaction 1: NmLgtA +, UDP +): 9.7 ± 0.6% | LacβMU (%) ([5]; Reaction 1: NmLgtA +, UDP +): 90.3 ± 0.6% | O2 (%) ([5]; Reaction 1: NmLgtA +, UDP +): 9.3% | O3 (%) ([5]; Reaction 1: NmLgtA +, UDP +): 1.0% | O4 (%) ([5]; Reaction 1: NmLgtA +, UDP +): 16.2% | O5 (%) ([5]; Reaction 1: NmLgtA +, UDP +): 4.4% | O6 (%) ([5]; Reaction 1: NmLgtA +, UDP +): 36.2% | O7 (%) ([5]; Reaction 1: NmLgtA +, UDP +): 3.0% | O8 (%) ([5]; Reaction 1: NmLgtA +, UDP +): 20.4% | O9 (%) ([5]; Reaction 1: NmLgtA +, UDP +): 0.6% | O10 (%) ([5]; Reaction 1: NmLgtA +, UDP +): 7.3% | O12 (%) ([5]; Reaction 1: NmLgtA +, UDP +): 1.7% | LacβMU (%) ([5]; Reaction 2: NmLgtA −, UDP +): 100% | O2 (%) ([5]; Reaction 2: NmLgtA −, UDP +): 11.4% | O3 (%) ([5]; Reaction 2: NmLgtA −, UDP +): 0.7% | O4 (%) ([5]; Reaction 2: NmLgtA −, UDP +): 23.7% | O5 (%) ([5]; Reaction 2: NmLgtA −, UDP +): 5.1% | O6 (%) ([5]; Reaction 2: NmLgtA −, UDP +): 35.1% | O7 (%) ([5]; Reaction 2: NmLgtA −, UDP +): 1.2% | O8 (%) ([5]; Reaction 2: NmLgtA −, UDP +): 15.8% | O9 (%) ([5]; Reaction 2: NmLgtA −, UDP +): 0.5% | O10 (%) ([5]; Reaction 2: NmLgtA −, UDP +): 5.1% | O12 (%) ([5]; Reaction 2: NmLgtA −, UDP +): 1.2% | LacβMU (%) ([5]; Reaction 4: NmLgtA +, UDP −): 100% | O6 (%) ([5]; Reaction 4: NmLgtA +, UDP −): 100% | expression level [6]: 60 to 80 mg/L | behaviour during dialysis [7]: remained soluble | pI (Isoelectric point (pI)): 6.61
